For 94 variants, protein stability index results are on record in the supplement of paper PMC10567573.

The labels stand for the following.
B1: CHCHD6 (parent)
chain: MYKLSSEQFHEAASKMESTIKPRR
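Also: lentivirally expressed fusions sorted by FACS into six bins by GFP to DsRed ratio, PSI derived from sequencing read proportions per bin multiplied by bin number.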

The variants in this data set derive from B1. In words: protein stability index of a GFP-peptide fusion (GPS, HEK-293T) (PSI 1-6); higher = more stable. Conditions: c terminus: a fixed tail appended.
On to MYKLSSEQFHEAASKMESTNKPRR [I20N], for which the protein stability index came out at 3.56. Turning to MYKLSSEQFHEAASKMESTVKPRR [I20V], the protein stability index was determined as 4.08. Consider MYKLSSEQFHEAASKMESTPKPRR [I20P], for which the protein stability index stood at 4.56. As to MYKLSSEQFHEAASKMESTRKPRR [I20R], the protein stability index came out at 3.97. Under MYKLSSEQFHEAASKMESTSKPRR [I20S] stands 4.21; under MYKLSSEQFHEAASKMESTLKPRR [I20L], 3.23. Consider MYKLSSEQFHEAASKMESTDKPRR [I20D], for which the protein stability index was determined as 4.22. On to MYKLSSEQFHEAASKMESTHKPRR [I20H], for which the protein stability index was found to be 3.95. Turning to MYKLSSEQFHEAASKMESTWKPRR [I20W], the protein stability index was found to be 3.07.

In the case of MYKLSSEQFHEAASKMESTKKPRR [I20K], the protein stability index stood at 4.05. Turning to MYKLSSEQFHEAASKMESTYKPRR [I20Y], the protein stability index was found to be 3.44. As for MYKLSSEQFHEAASKMESTTKPRR [I20T], the protein stability index came to 4.25.

Take MYKLSSEQFHEAASKMESTEKPRR [I20E]: the protein stability index turned out to be 4.74.

Take MYKLSSEQFHEAASKMESTGKPRR [I20G]: the protein stability index came to 4.3.

As to MYKLSSEQFHEAASKMESTAKPRR [I20A], the protein stability index was determined as 4.38. For the variant MYKLSSEQFHEAASKMESTFKPRR [I20F], the protein stability index was 3.51.

As for MYKLSSEQFHEAASKMESTMKPRR [I20M], the protein stability index came out at 4.21.

Consider MYKLSSEQFHEAASKMESTCKPRR [I20C], for which the protein stability index turned out to be 4.01. Under MYKLSSEQFHEAASKMESTQKPRR [I20Q] stands 3.82; under MYKLSSEQFHEAASKMESTIKPKR [R23K], 4.11. With MYKLSSEQFHEAASKMESTIKPWR [R23W] the figure was 2.54; with MYKLSSEQFHEAASKMESTIKPVR [R23V], 3.16; with MYKLSSEQFHEAASKMESTIKPER [R23E], 4.14.

As to MYKLSSEQFHEAASKMESTIKPQR [R23Q], the protein stability index turned out to be 3.12. Turning to MYKLSSEQFHEAASKMESTIKPFR [R23F], the protein stability index is 3. Take MYKLSSEQFHEAASKMESTIKPHR [R23H]: the protein stability index worked out at 3.96. Consider MYKLSSEQFHEAASKMESTIKPTR [R23T], for which the protein stability index is 3.31. Take MYKLSSEQFHEAASKMESTIKPGR [R23G]: the protein stability index worked out at 3.59. Regarding MYKLSSEQFHEAASKMESTIKPNR [R23N], the protein stability index was 3.4. As for MYKLSSEQFHEAASKMESTIKPIR [R23I], the protein stability index turned out to be 3.05. Consider MYKLSSEQFHEAASKMESTIKPDR [R23D], for which the protein stability index is 4.44.

For the variant MYKLSSEQFHEAASKMESTIKPSR [R23S], the protein stability index came to 3.7.

For the variant MYKLSSEQFHEAASKMESTIKPMR [R23M], the protein stability index was found to be 3.65. For the variant MYKLSSEQFHEAASKMESTIKPCR [R23C], the protein stability index amounted to 3.48. For MYKLSSEQFHEAASKMESTIKPPR [R23P], the protein stability index turned out to be 3.78. Regarding MYKLSSEQFHEAASKMESTIKPAR [R23A], the protein stability index amounted to 3.99. As to MYKLSSEQFHEAASKMESTIKPLR [R23L], the protein stability index is 2.91. As for MYKLSSEQFHEAASKMESTIKPYR [R23Y], the protein stability index was 3.44. Regarding MYKLSSEQFHEAASKMESTIKVRR [P22V], the protein stability index worked out at 3.6. Regarding MYKLSSEQFHEAASKMESTIKNRR [P22N], the protein stability index was found to be 3.46. With MYKLSSEQFHEAASKMESTIKDRR [P22D] the figure was 4.26; with MYKLSSEQFHEAASKMESTIKQRR [P22Q], 3.86; with MYKLSSEQFHEAASKMESTIKYRR [P22Y], 3. As to MYKLSSEQFHEAASKMESTIKIRR [P22I], the protein stability index is 3.53. Under MYKLSSEQFHEAASKMESTIKKRR [P22K] stands 3.8; under MYKLSSEQFHEAASKMESTIKARR [P22A], 3.46. Under MYKLSSEQFHEAASKMESTIKHRR [P22H] stands 3.91; under MYKLSSEQFHEAASKMESTIKFRR [P22F], 3. Consider MYKLSSEQFHEAASKMESTIKTRR [P22T], for which the protein stability index worked out at 4.09. Turning to MYKLSSEQFHEAASKMESTIKGRR [P22G], the protein stability index was found to be 3.56. As to MYKLSSEQFHEAASKMESTIKMRR [P22M], the protein stability index was 3.86. MYKLSSEQFHEAASKMESTIKWRR [P22W]: the protein stability index came to 2.58. On to MYKLSSEQFHEAASKMESTIKCRR [P22C], for which the protein stability index was 4.05.

Consider MYKLSSEQFHEAASKMESTIKRRR [P22R], for which the protein stability index turned out to be 3.83. As to MYKLSSEQFHEAASKMESTIKLRR [P22L], the protein stability index amounted to 3.92. With MYKLSSEQFHEAASKMESTIKSRR [P22S] the figure was 4.03; with MYKLSSEQFHEAASKMESTIKERR [P22E], 3.93; with MYKLSSEQFHEAASKMESTIKPRI [R24I], 2.86. Consider MYKLSSEQFHEAASKMESTIKPRM [R24M], for which the protein stability index amounted to 3.86. With MYKLSSEQFHEAASKMESTIKPRG [R24G] the figure was 3.39; with MYKLSSEQFHEAASKMESTIKPRW [R24W], 2.56; with MYKLSSEQFHEAASKMESTIKPRC [R24C], 3.1. As for MYKLSSEQFHEAASKMESTIKPRD [R24D], the protein stability index worked out at 4.2. MYKLSSEQFHEAASKMESTIKPRY [R24Y]: the protein stability index was 3.15.

With MYKLSSEQFHEAASKMESTIKPRT [R24T], the protein stability index was determined as 4.12. With MYKLSSEQFHEAASKMESTIKPRV [R24V] the figure was 3.06; with MYKLSSEQFHEAASKMESTIKPRQ [R24Q], 3.65. Under MYKLSSEQFHEAASKMESTIKPRH [R24H] stands 3.85. With MYKLSSEQFHEAASKMESTIKPRL [R24L] the figure was 3.31; with MYKLSSEQFHEAASKMESTIKPRP [R24P], 3.7. As to MYKLSSEQFHEAASKMESTIKPRA [R24A], the protein stability index worked out at 3.91. With MYKLSSEQFHEAASKMESTIKPRK [R24K] the figure was 3.86; with MYKLSSEQFHEAASKMESTIKPRF [R24F], 3.06; with MYKLSSEQFHEAASKMESTIKPRN [R24N], 4.18. Turning to MYKLSSEQFHEAASKMESTIKPRS [R24S], the protein stability index was 4.11. Take MYKLSSEQFHEAASKMESTIKPRE [R24E]: the protein stability index stood at 3.74. Take MYKLSSEQFHEAASKMESTIYPRR [K21Y]: the protein stability index was 2.33. In the case of MYKLSSEQFHEAASKMESTIVPRR [K21V], the protein stability index turned out to be 3.61. Under MYKLSSEQFHEAASKMESTIQPRR [K21Q] stands 3.22. For MYKLSSEQFHEAASKMESTIMPRR [K21M], the protein stability index came to 3.09. In the case of MYKLSSEQFHEAASKMESTIDPRR [K21D], the protein stability index stood at 3.69. With MYKLSSEQFHEAASKMESTIFPRR [K21F], the protein stability index was 3. MYKLSSEQFHEAASKMESTIEPRR [K21E]: the protein stability index stood at 4.33.

For the variant MYKLSSEQFHEAASKMESTISPRR [K21S], the protein stability index stood at 3.68. With MYKLSSEQFHEAASKMESTIIPRR [K21I], the protein stability index was determined as 3.44. As for MYKLSSEQFHEAASKMESTIPPRR [K21P], the protein stability index is 4.13. With MYKLSSEQFHEAASKMESTICPRR [K21C], the protein stability index came out at 4.22. MYKLSSEQFHEAASKMESTIRPRR [K21R]: the protein stability index worked out at 3.9. In the case of MYKLSSEQFHEAASKMESTIGPRR [K21G], the protein stability index is 3.5.

For MYKLSSEQFHEAASKMESTIWPRR [K21W], the protein stability index was 2.48.

For the variant MYKLSSEQFHEAASKMESTIAPRR [K21A], the protein stability index stood at 3.49. For MYKLSSEQFHEAASKMESTIHPRR [K21H], the protein stability index amounted to 3.86.

Consider MYKLSSEQFHEAASKMESTILPRR [K21L], for which the protein stability index is 3.04. Regarding MYKLSSEQFHEAASKMESTITPRR [K21T], the protein stability index is 3.31.
